In paper PMC4027202:

Key:
[1] = target: T1, Toscana virus nucleoprotein N (Toscana virus, UniProt P21701 1-253); test: ITC; n=0.51; ITC: 20 mM Tris pH 7.5, 150 mM NaCl, 8 C; 400 uM RNA titrated into 30 uM apo N; conditions: protein: recombinant; tags: N-terminal His6; chain copies: 6; single strand
T1 sequence: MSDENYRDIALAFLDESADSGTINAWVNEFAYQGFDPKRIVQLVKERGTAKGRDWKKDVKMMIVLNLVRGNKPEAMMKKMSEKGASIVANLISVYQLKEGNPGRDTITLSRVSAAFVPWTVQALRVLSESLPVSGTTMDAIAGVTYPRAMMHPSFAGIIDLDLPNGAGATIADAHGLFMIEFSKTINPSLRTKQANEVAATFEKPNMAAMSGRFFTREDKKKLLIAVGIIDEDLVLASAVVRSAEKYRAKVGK

RVFV nucleoprotein N = target: T2, RVFV nucleoprotein N (Rift Valley fever virus, UniProt D3K5I7 1-245); test: ITC; n=0.70; main text gives 420 nM; ITC: 20 mM Tris pH 7.5, 150 mM NaCl, 8 C; […]; conditions: protein: recombinant; single strand
T2 sequence: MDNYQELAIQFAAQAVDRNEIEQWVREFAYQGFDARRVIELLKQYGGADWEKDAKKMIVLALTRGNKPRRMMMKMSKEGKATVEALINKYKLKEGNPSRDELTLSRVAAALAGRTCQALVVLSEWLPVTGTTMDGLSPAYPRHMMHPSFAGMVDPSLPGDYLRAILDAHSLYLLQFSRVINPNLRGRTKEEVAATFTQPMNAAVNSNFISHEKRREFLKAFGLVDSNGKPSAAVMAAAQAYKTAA

[2] = target: T1, Toscana virus nucleoprotein N; test: ITC; n=0.49; ITC: 20 mM Tris pH 7.5, 150 mM NaCl, 8 C; 400 uM RNA titrated into 30 uM apo N; conditions: protein: recombinant; tags: N-terminal His6; chain copies: 6; single strand
[3] = target: T1, Toscana virus nucleoprotein N; test: ITC; n=0.43; ITC: 20 mM Tris pH 7.5, 150 mM NaCl, 8 C; 400 uM RNA titrated into 30 uM apo N; conditions: protein: recombinant; tags: N-terminal His6; chain copies: 6; single strand
[4] = target: T1, Toscana virus nucleoprotein N; test: ITC; n=0.50; ITC: 20 mM Tris pH 7.5, 150 mM NaCl, 8 C; 400 uM RNA titrated into 30 uM apo N; conditions: protein: recombinant; tags: N-terminal His6; chain copies: 6; single strand
[5] = target: the molecule itself; test: crystal structure; N reconstituted with 9-mer RNA oligo1 (UGUGUUUCU); 11% PEG 3350, 0.1-M sodium malonate, pH 4.5-5.2; space group P1, 24 N and 12 RNA in the asymmetric unit, 2.6 Å
[6] = target: the molecule itself; test: crystal structure; apo (RNA-free) N; 6.5% PEG 3350, 0.1-M sodium malonate, pH 4.5-5.2; space group P6, 12 molecules in the asymmetric unit, 3.3 Å
[7] = target: T1, Toscana virus nucleoprotein N; test: ITC; n=0.52; ITC: 20 mM Tris pH 7.5, 150 mM NaCl, 8 C; 400 uM RNA titrated into 30 uM apo N; conditions: protein: recombinant; tags: N-terminal His6; chain copies: 6; single strand
[8] = target: T1, Toscana virus nucleoprotein N; test: ITC; n=0.40; ITC: 20 mM Tris pH 7.5, 150 mM NaCl, 8 C; 400 uM RNA titrated into 30 uM apo N; conditions: protein: recombinant; tags: N-terminal His6; chain copies: 6; single strand

Binder: UGUGUUUC (ssRNA) [oligo6 (8-mer from oligo1)]
- Kd [1]: 710 ± 30 nM

Binder: UGUGUUUCU (ssRNA) [oligo1 (reverted 3' consensus 9-mer)]
- Kd (RVFV nucleoprotein N): 400 ± 100 nM
- Kd [2]: 260 ± 20 nM

Binder: UCUUUGUGU (ssRNA) [oligo2 (3' genomic consensus)]
- Kd [3]: 560 ± 70 nM

Binder: UGUGUU (ssRNA) [oligo8 (6-mer from oligo1)]
- Kd [4]: 8000 ± 900 nM

B1: Toscana virus nucleoprotein N (natural protein)
chain: T1 sequence
notes: Hexameric ring in both crystal forms
- stoichiometry N [5]: 6
- stoichiometry N [6]: 6

Binder: UAUGUUUCU (ssRNA) [oligo4 (G2A mutant of oligo1)]
- Kd [2]: 290 ± 40 nM

Binder: UGUGUUU (ssRNA) [oligo7 (7-mer from oligo1)]
- Kd [7]: 2700 ± 200 nM

Binder: UUUUUUUUU (ssRNA) [oligo5 (polyU 9-mer)]
- Kd [8]: 360 ± 40 nM
